The chains are these.
T1: MdNAC104-His (Malus domestica, UniProt D9ZJ88 1-204)
T1 sequence: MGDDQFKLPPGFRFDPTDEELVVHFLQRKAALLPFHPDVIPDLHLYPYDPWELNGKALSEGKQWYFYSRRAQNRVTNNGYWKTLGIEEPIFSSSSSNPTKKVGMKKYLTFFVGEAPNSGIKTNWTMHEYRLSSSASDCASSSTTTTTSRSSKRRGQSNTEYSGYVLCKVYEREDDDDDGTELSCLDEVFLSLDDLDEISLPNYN

B1: MdF3H-a-P5 (dsDNA)
DNA 1: CAATTGAGTAATTTCGTTCTTAATTCTTTT
DNA 2: AAAAGAATTAAGAACGAAATTACTCAATTG
B2: MdANS-b-P4 (dsDNA)
DNA 1: GATTCCTATATATACGTAACTAGCTCATAG
DNA 2: CTATGAGCTAGTTACGTATATATAGGAATC
B3: MdCHS-b-P2 (dsDNA)
DNA 1: GATGTGGAACATGTGTGGCTATTAGGTTGGTATTCACACGAAATACGACCTACTATATAC
DNA 2: GTATATAGTAGGTCGTATTTCGTGTGAATACCAACCTAATAGCCACACATGTTCCACATC
B4: MdF3H-a-P3 (dsDNA)
DNA 1: GTTACCCCATATGACCATGTAACCGTCTGA
DNA 2: TCAGACGGTTACATGGTCATATGGGGTAAC
B5: MdCBF3-P1 (dsDNA)
DNA 1: TATATATATTCATGTGGATTGGGTGATGAG
DNA 2: CTCATCACCCAATCCACATGAATATATATA
B6: MdCHS-b-P4 (dsDNA)
DNA 1: TCCTTTTTACGAAAGTGACATTACAACGAA
DNA 2: TTCGTTGTAATGTCACTTTCGTAAAAAGGA
B7: MdCBF1-P1 (dsDNA)
DNA 1: CATCCCCACGAAAAGTACACAACCAACACA
DNA 2: TGTGTTGGTTGTGTACTTTTCGTGGGGATG
B8: MdANS-b-P1 (dsDNA)
DNA 1: GGTGAGATGTCACATGTACAACAGCCACAT
DNA 2: ATGTGGCTGTTGTACATGTGACATCTCACC
B9: MdF3H-a-P1 (dsDNA)
DNA 1: CAAACACAAAACGTATTTCGTTTGAGCCAA
DNA 2: TTGGCTCAAACGAAATACGTTTTGTGTTTG
B10: MdCBF1-P1-mut (dsDNA)
DNA 1: B7 DNA 1 with C9A, G10A
DNA 2: B7 DNA 2 with C21T, G22T
B11: MdF3H-a-P7 (dsDNA)
DNA 1: CAAAAATATTTTCCGTAATGAAGTGTCTTG
DNA 2: CAAGACACTTCATTACGGAAAATATTTTTG
B12: MdFSD2-P3 (dsDNA)
DNA 1: GTCATTTTGGACGAAAACTTTAATGAAAAT
DNA 2: ATTTTCATTAAAGTTTTCGTCCAAAATGAC
B13: MdCHI-P1 (dsDNA)
DNA 1: CTTTTGAGTTGGTTTCGTTGAAGACTTTTT
DNA 2: AAAAAGTCTTCAACGAAACCAACTCAAAAG
B14: MdPRXR1.1-P2 (dsDNA)
DNA 1: TTTGTAACTAACGGAAAACTTAATACAAAA
DNA 2: TTTTGTATTAAGTTTTCCGTTAGTTACAAA
B15: MdCBF3-P1-mut (dsDNA)
DNA 1: TATATATATTAAAAAAGATTGGGTGATGAG
DNA 2: CTCATCACCCAATCTTTTTTAATATATATA
B16: MdF3H-a-P2 (dsDNA)
DNA 1: ACATAGATGAATACATGTCACCGCCATAAT
DNA 2: ATTATGGCGGTGACATGTATTCATCTATGT

Changes are numbered by the printed parent chain.

This series concerns the target T1, MdNAC104-His. The series can be described thus: EMSA; LightShift Chemiluminescent EMSA kit (Thermo) per manufacturer; buffer, salt, pH and temperature not stated. Particulars: protein: recombinant; tags: His (pET32a); chain copies: 2; label: biotin; blunt.
Consider B1, for which the binding result is “binds”.

As for B2, the binding result is given as “binds”. Next, B3: “binds”; B4: “binds”. Next, B5: “binds”; B6: “binds”; B7: “binds”. As for B8, the binding result is “binds”. Next, B9: “binds”; B10: “no binding”. Then B11, with “binds”; and B12, with “binds”.

With B13, the binding result was “binds”. Next, B14: “binds”; B15: “no binding”. For the molecule B16, the binding result was “binds”.

(Values after paper PMC10502760, “MdNAC104 positively regulates apple cold tolerance via CBF‐dependent and CBF‐independent pathways”.)
